Measured values: US8343500 (APITOPE TECHNOLOGY BRISTOL, dated 2013)

Tests used:
HLA-DQ6 = HLA-DQ6 (human, UniProt P01909 24-254; P01920 33-261); experiment: cell-based or functional assay
HLA-DR2b = biological target: T1, HLA-DR2b (human); experiment: conclusion of Example 6; tolerance induction in HLA:DR2 (DRB1*1501) transgenic mice, no direct binding assay
T1 construct: whole, on cells; also called DR2b [DRB1*1501]; HLA:DR2 (DRB1*1501)

B1: MBP 30-44 (peptide)
peptide: PRHRDTGILDSIGRF
- proliferation of T-cell clone MS 49:D3 ([3H]-thymidine, stimulation index), against Mgar control cells (HLA-DQ6): 1.5 fold

B2: MBP 130-144 (peptide)
peptide: RASDYKSAHKGFKGV
- proliferation of T-cell clone MS17:A2 ([3H]-thymidine, stimulation index), against Mgar control cells (HLA-DQ6): 3.24 fold

B3: MBP 140-154 (peptide)
peptide: GFKGVDAQGTLSKIF
notes: also called ATX-MS-06; APITOPE MS6
- binding result (HLA-DR2b): binds
